Experimental data reported in publication PMC7168753 (Science (New York, N.Y.), 2019).

Target: CH848 10.17DT stabilized SOSIP gp140 Env trimer (HIV-1)
Assay: SPR

| Binder | Kd [nM] |
| --- | --- |
| DH270 UCA with the improbable G57R mutation (antibody, V domains shown) VH: not shown VL: QSALTQPASVSGSPGQSITISCTGTSSDVGSYNLVSWYQQHPGKAPKLMIYEVSKRPSGVSNRFSGSKSGNTASLTISGLQAEDEADYYCCSYAGSSTVIFGGGTKLTVL | 132 |
| DH270 UCA (antibody, format not stated in the text) (antibody, V domains shown) VH: not shown VL: QSALTQPASVSGSPGQSITISCTGTSSDVGSYNLVSWYQQHPGKAPKLMIYEVSKRPSGVSNRFSGSKSGNTASLTISGLQAEDEADYYCCSYAGSSTVIFGGGTKLTVL | 558 |
